According to paper PMC6985287, “Novel Immunomodulatory Proteins Generated via Directed Evolution of Variant IgSF Domains” (Frontiers in Immunology, 2019):

Molecular target: T1, wild type human ICOSL-Fc fusion protein (human, UniProt O75144 19-256)
T1 construct: ICOS ligand (ICOSL), human, extracellular domain (ECD); secreted with the human immunoglobulin VH5-51 signal peptide; Fc dimer; also called WT ICOSL; WT ICOSL-Fc; source: Expi293F, transient expression, purified (Protein A, SEC); not shown: Fc (IgG1, lacking effector function), C-terminal, kept
T1 sequence (looked up): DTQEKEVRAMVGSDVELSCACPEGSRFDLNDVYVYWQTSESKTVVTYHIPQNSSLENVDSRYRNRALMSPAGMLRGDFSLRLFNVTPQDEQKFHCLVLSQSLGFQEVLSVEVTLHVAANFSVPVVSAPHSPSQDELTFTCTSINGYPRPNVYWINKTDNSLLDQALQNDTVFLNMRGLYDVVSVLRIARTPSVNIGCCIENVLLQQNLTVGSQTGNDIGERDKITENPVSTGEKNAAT
Assay: BLI; ForteBio Octet QKe; receptor-Fc loaded on the sensor (Protein A sensors in the methods, anti-human capture AHC sensors in the table's footnote); ICOSL-Fc proteins in four-point titrations (100, 50, 25, 12.5 nM); global 1:1 fit; both partners Fc dimers, KD includes avidity
Conditions: both partners purified

B1: human recombinant ICOS-Fc fusion protein (Fc fusion, UniProt Q9Y6W8 21-140, looked up)
chain: EINGSANYEMFIFHNGGVQILCKYPDIVQQFKMQLLKGGQILCDLTKTKGSGNTVSIKSLKFCHSQLSNNSVSFFLYNLDHSHANYYFCNLSIFDPPPFKVTLTGGYLHIYESQLCCQLK
notes: Inducible Costimulator (ICOS), human, soluble Fc fusion; also called soluble ICOS-Fc; source: bought: R&D Systems
B1 was tested, and the Kd was 0.883 nM.
